The test deals with activin Type II receptors (ActRIIA and ActRIIB) on A204/CAGAx12-Luc cells. Put plainly: cell-based or functional assay.

The values below come from patent US20220056119A1.

B1: Activin B (homodimer of two inhibin betaB subunits), P09529 293-407 (ligand)
chain: GLECDGRTNLCCRQQFFIDFRLIGWNDWIIAPTSYYGNYCEGSCPAYLAGVPGSASSFHTAVVNQYRMRGLNPGTVNSCCIPTKLSTMSMLYFDDEYNIVKRDVPNMIVEECGCA
For the molecule B1, the activation of the A204/CAGAx12-Luc cell line (Smad 2/3-luciferase reporter), EC50 is 0.047 nM.

B2: Activin A (homodimer of two inhibin betaA subunits), P08476 311-426 (ligand)
chain: GLECDGKVNICCKKQFFVSFKDIGWNDWIIAPSGYHANYCEGECPSHIAGTSGSSLSFHSTVINHYRMRGHSPFANLKSCCVPTKLRPMSMLYYDDGQNIIKKDIQNMIVEECGCS
The molecule B2 showed an activation of the A204/CAGAx12-Luc cell line (Smad 2/3-luciferase reporter), EC50 of 0.099 nM.
